Data on four molecules can be found in paper PMC9324849, “A Light‐Activatable Photocaged Variant of the Ultra‐High Affinity ALFA‐Tag Nanobody” (Chembiochem, 2022).

Assay [1] has as its target sfGFP-ALFA-tag (3). Nature of the assay: MST; 10 nM sfGFP-ALFA-tag (3) with a dilution series of photobody 1, before light activation.
Assay [2] concerns the target ALFA-Pb displayed on E. coli cells (AIDA autodisplay system), photocaged, not irradiated. As to the kind of experiment: flow cytometry on cells; E. coli cells displaying the nanobody (AIDA autodisplay system), not irradiated, mixed with a dilution series of fluorescent sfGFP-ALFA-tag (3).
In assay [3] the target is T1, sfGFP-ALFA-tag (3) (synthetic construct …).
T1 construct: ALFA-tag, laboratory-designed amphiphilic peptide of 13 amino acids; sfGFP is the fluorescent marker read in MST and flow cytometry; also called protein 3; fusion construct sfGFP-ALFA-tag
T1 chain: SRLEEELRRRLTE
Nature of the assay: flow cytometry on cells; E. coli cells displaying the ALFA-Pb irradiated in 100 uL PBS (OD600=1; 365 nm, 530 mW; 5 cm distance), then different concentrations of sfGFP-ALFA-tag (3) added. As to conditions: one partner purified.

Assay [4] concerns the target T1, sfGFP-ALFA-tag (3). Nature of the assay: flow cytometry on cells; E. coli cells displaying the nanobody (AIDA autodisplay system), not irradiated, mixed with a dilution series of fluorescent sfGFP-ALFA-tag (3). To be noted: one partner purified. A general note: A flow cytometer gives signals particle by particle.

As a reminder, the Kd is the concentration at which binding is half-saturated. Higher therefore signals weaker binding. Take “ALFA-tag photobody (ALFA-Pb) 1, Tyr42ONBY, photocaged (VHH)”: the Kd in the assay with sfGFP-ALFA-tag (3) [1] is 7900 nM.

Regarding sfGFP-ALFA-tag (3), in assay [2], the Kd was determined as 3200 nM.

B1: decaged ALFA-Pb displayed on E. coli cells (after irradiation at 365 nm) (VHH)
VHH: EVQLQESGGGLVQPGGSLRLSCTASGVTISALNAMAMGWYRQAPGERRVMVAAVSERGNAMYRESVQGRFTVTRDFTNKMVSLQMDNLKPEDTAVYYCHVLEDRVDSFHDYWGQGTQVTVSS
notes: Made from m2 by UV light
B1 showed a Kd with sfGFP-ALFA-tag (3) [3] of 0.183 ± 0.006 nM.

B2: ALFA-Nb (wild type) displayed on E. coli cells, unirradiated control (VHH)
VHH: EVQLQESGGGLVQPGGSLRLSCTASGVTISALNAMAMGWYRQAPGERRVMVAAVSERGNAMYRESVQGRFTVTRDFTNKMVSLQMDNLKPEDTAVYYCHVLEDRVDSFHDYWGQGTQVTVSS
notes: ALFA-tag nanobody (ALFA-Nb), wild type; also called unirradiated ALFA-Nb control; ALFA-tag nanobody
With B2, the Kd with sfGFP-ALFA-tag (3) [4] came to 0.346 ± 0.005 nM.
